Test: yeast display, Sf9 membrane polyspecificity reagent, FACS + sequencing; frameworks hold sequencing errors
Outline: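 Nanobodies came from a synthetic yeast display library in Saccharomyces cerevisiae BJ5465, induced with galactose for 36–48 hours and stained for 1 hour at 4 °C with 10% biotinylated, detergent-solubilized Sf9 membrane reagent. Cells were enriched on streptavidin microbeads and then FACS-sorted, with low and high (top ~1%) gates set on anti-HA fluorescence for expression and streptavidin fluorescence for reagent binding. Each polyreactivity label reflects the gate a clone came from. Genes were amplified by colony PCR, sequenced by MiSeq 2 × 250 and filtered by CDR length.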

Question: For “QVQHVESVGGLVQAGGSLRLSCASSGRTLFYYTMRWYRQARGTERELVAAISSGDSTNYADSVKGRFTISRDNAKNTVYLHMNSLKPEDTAVYYCAARFYQIRRRYDYWGQGTQVTVSS”, which “polyreactivity (PSR sort gate)” value is on record?
Answer: low polyreactivity

Question: Which “polyreactivity (PSR sort gate)” value does the source give for “QVQHVQSGGGLVQAGGSLPLSCDASASIFKYYTMGWYRQAPGKERELVATINFSGASTYYADSVKGRFTISRDNAKNTVYLQINSLKPEDTAVYYCAAVSSSTYRYYYWGQGTQVTVSS” here?
Answer: high polyreactivity

Question: For “QVQIEESGGGLVQAGGSLRLSCAASGFIFVWYAMGWYRQAPGKERELVAAISRDGDTNYADSVKGRFTISRDNAKNTVYLQMNSLKPEDTAVDYCARTYIYSGRIYNYGYWGQGTQVTVSS”, which “polyreactivity (PSR sort gate)” value is on record?
Answer: high polyreactivity

Question: For “QVQIEESGGGLVQAGGSLRLSCAASGNIFPGNDMGWYRQAPRKERELVAAITSRDGSTYYADSVKGRFTISRDNAKNTVYLQMNSLKPEDTAVYYCNTDPDLYYLATAGYWSHDYWGQGTQVTVSS”, which “polyreactivity (PSR sort gate)” value is on record?
Answer: low polyreactivity

Question: With “QVQIEESGGGLVQAGGSLRLSCAASGSIFVVYALGWYRPAPGKERELVAGISRNGGRTYYADSVKGRFTISRDNAKITVYLQMNILKPEDTAVYYCNAYRPSRHDYWGQGTQVTVSS” as the sequence, how does the “polyreactivity (PSR sort gate)” value read?
Answer: high polyreactivity

Question: Which “polyreactivity (PSR sort gate)” value does the source give for “QVQIEESGGGLVQAGGSLRLTCAASGRIFYLNAMGWYRQAPGKERELVAGITNSTTGTYYADSVKGRFTISRDNAKNSVYLQMNSLKPEDTAVFYCNTDVAYEEPVETYDYWGQGTQVTVSS” here?
Answer: low polyreactivity

Question: For “QVQIGESGGGLVQAGGSLRLSCAACGFIFYRYAMGWYRQAPGKERELVAAISWSGGTTYYADSVKGRFTISRDNAKNTDYLQMNSLKPEDTAVYYCNARYPRSSPFGYWGQGTQVTVSS”, which “polyreactivity (PSR sort gate)” value is on record?
Answer: high polyreactivity

Question: With “QVQILESGGGLVKAGGSLRLSCAASGYTFYANAMGWYRKAPGKEREFVASITWSGGSTYYADSVKGRFTISRDNAKNTVYLQMNSLKPEDTAVDYCAADVIGDLRWYRDEYLGQGTQVTVSS” as the sequence, how does the “polyreactivity (PSR sort gate)” value read?
Answer: low polyreactivity

Question: With “QVQIVDSCGGLVQSGGSLRLSCDASGSTFLTNSMGWYRQAPGKERELVAAITLRGGRTYYADSVKGRFTISRDNALNTVYLQMNSLKPEDSAVYYCNARNYYYPSDRDYWGQGTQVTVSS” as the sequence, how does the “polyreactivity (PSR sort gate)” value read?
Answer: low polyreactivity

Question: With “QVQIVDSGGGLVQAVGSLRLSCAASGSIIKKYAMGWYRQAPGKERELVAAISSTCGSTKYADSVKGRFTISRDNAKNTVYLQMNSLKAEDTAVYYCAVRYKWPYDYWGQGTQVTVSS” as the sequence, how does the “polyreactivity (PSR sort gate)” value read?
Answer: high polyreactivity

Question: For “QVQIVESGGALVQAGCSLRLSCAASGSTFWYYVMGWYRQAPGKERELVAAISIVGSTYYADSVKGRFTLSRDNAKNTVYLQMNSLKPEDTAVYYCAADIYQYGYDYWGQGTQVTVSS”, which “polyreactivity (PSR sort gate)” value is on record?
Answer: low polyreactivity

Question: Which “polyreactivity (PSR sort gate)” value does the source give for “QVQIVESGGALVQAGGSLRFSCAASGSIFFSNTRGWYRQAPGKEREFVAAITWSTGNTYYADSVKGRFTISRDNAKNTVYLQMNSLKPEDTAVYYCYAEYLVITWYGGVEFDYWGQGTQVTVSS” here?
Answer: low polyreactivity

Question: With “QVQIVESGGGLDQAGGSLRLSCAASGRTFVSNDMGRYRQAPGKERELVATISSGASTYYADSVKGRFTISRDNAKTTVYLQMISLKPEDNAVYYCAAEDLVFGGGYDYWGQGTQVNVSS” as the sequence, how does the “polyreactivity (PSR sort gate)” value read?
Answer: low polyreactivity

Question: For “QVQIVESGGGLDQAGGSLRLSCAATGSTFYWNAMGWYRQAPWKERELVAAISSGGSTYYADSVKGRFTISRDNAKNTVYVQMNSLKPEDTAVYYCAAEWYPYPWGYGYWGQGTQVTVSS”, which “polyreactivity (PSR sort gate)” value is on record?
Answer: low polyreactivity

Question: With “QVQIVESGGGLFQAGGSIRLSCSASGFTFAFYSMGWYRQAPGKERQLVAAISWSGGSTYYADSVKWRFTISRDNAKNTVYLQMNSLKPEDNAVYYCNTDRGPIGDHYDYWGQGTQVTVSS” as the sequence, how does the “polyreactivity (PSR sort gate)” value read?
Answer: high polyreactivity

Question: With “QVQIVESGGGLFQAGGSRRLSCAASGVMFSYYAMGWYRQAPGKDRELVAAISRRVGSTYYADSVKGRFTISRDNAKNTVYLQMNSLITQVTAVYYWNAYLYSRYEFDYWVQGTQVTVSS” as the sequence, how does the “polyreactivity (PSR sort gate)” value read?
Answer: high polyreactivity

Question: With “QVQIVESGGGLLQAGGSLRLSCAASGSTFERYAMGWYRQAPWKERELVAAIDSSGGTTYYADSVKGRFTISRDNAKNTDYLQMNSLKPEDTAVYYCAADPGYYSVAYDYWGQGTQVTVSA” as the sequence, how does the “polyreactivity (PSR sort gate)” value read?
Answer: low polyreactivity

Question: With “QVQIVESGGGLVHAGGSLRLSCAASGRIFPDYAMGWYRQAPGKERELVATISYSGGNTNYADSVKGRFTISRDNAKNTVYLQMNSLKPEDTAVYYCNTDWYLPRYVLLGYFSGTEDYWGQGTQVTVSS” as the sequence, how does the “polyreactivity (PSR sort gate)” value read?
Answer: low polyreactivity

Question: Which “polyreactivity (PSR sort gate)” value does the source give for “QVQIVESGGGLVQAAGSLRLTFAASGIIFYIYPMGWYRPAPGKERELVASISFSGTSTYYADSVKGRFTISRDNAKNTVYIQMHSLKPEDTAVYYCAAGARWRRALAVKPYQKYGYWGQGTQVTVSS” here?
Answer: low polyreactivity

Question: Which “polyreactivity (PSR sort gate)” value does the source give for “QVQIVESGGGLVQAGCSLRLSCAASGSTFLSNAMGLYRQAPGKERELVATNSFSRATYADSVKGRFTISRDNAKNTVYLQMNSLKPVDTAVYYCNRATINFSGKGDTAYDYWGQGTQVTVSS” here?
Answer: low polyreactivity

Question: Which “polyreactivity (PSR sort gate)” value does the source give for “QVQIVESGGGLVQAGGSHRLSCAATGLTFKYYAMGWYIQAPGKERELVAAISRSGGSTYYADSVKGRFTISRDNAKNTVYLQKNSLKPEDTAVYYCNARAGRYYSVYYPGDYWGQGTQVTVSS” here?
Answer: high polyreactivity

Question: For “QVQIVESGGGLVQAGGSIRLSCAASGTTFNLYAMGWYRQAPGKERQLVAVISWSGGSTYYADSVKGRFTISRDNAKNTVYLQMNSLKPEDTAVYYCAAEYYQWLYPYNEYDYWGQGTQVTVSS”, which “polyreactivity (PSR sort gate)” value is on record?
Answer: high polyreactivity

Question: For “QVQIVESGGGLVQAGGSLRISCAASGRTIHLYDMGWYRQAPGKERELVAAITWSSGRTYYADSVKGRVTISRDNAKNTVYVQMNILKPEDTEVYYCAADVWGGLLPGYDYWGQGTQVTVSS”, which “polyreactivity (PSR sort gate)” value is on record?
Answer: high polyreactivity

Question: For “QVQIVESGGGLVQAGGSLRISCAASGYIFLPYAMGWYRQAPGKERELVADITSVGRTYYADSVKGRFTISRDNEKNTVYLQMNSLKPEDTAVYYCAKRHSLGYGRSRYSSGYDYWGQGTQVTVSS”, which “polyreactivity (PSR sort gate)” value is on record?
Answer: high polyreactivity

Question: Which “polyreactivity (PSR sort gate)” value does the source give for “QVQIVESGGGLVQAGGSLRLSCAASGFIFPANAMGWYRQAPGKEREFVAVISYSGGRTYYADSVKGRFTISRDNAKNTVYLQMNSLKPEDTSVYYCNVVRVATWGYDYWGQGSQVTVSS” here?
Answer: low polyreactivity

Question: Which “polyreactivity (PSR sort gate)” value does the source give for “QVQIVESGGGLVQAGGSLRLSCAASGFIFQAYAMGWYRQAPGKERELVAAISSTSGRTYYADSVKGRFTISRDNAKNTVYLQMNSLKPEDTAVYYCARAVSSRNSGEYHYWGQGTQVTVSS” here?
Answer: high polyreactivity

Question: With “QVQIVESGGGLVQAGGSLRLSCAASGFIFRRNAMGWYRQAPGKERELVATIRASGGRTYYADSVKGRFTISRDNAKNTVYLQRNSLKPEDTAVYYCNAGKAPYLRYDYWGQGTEVTVSS” as the sequence, how does the “polyreactivity (PSR sort gate)” value read?
Answer: high polyreactivity

Question: Which “polyreactivity (PSR sort gate)” value does the source give for “QVQIVESGGGLVQAGGSLRLSCAASGFIFYYYDMGWYRQAPWKERELVAVLTESGSSTYYADSVKGRFTITRDNAKNNVYLQMNSLKPEDTAVYYCAADGRASVGGLGDDYWGQGTQVTVSS” here?
Answer: low polyreactivity

Question: Which “polyreactivity (PSR sort gate)” value does the source give for “QVQIVESGGGLVQAGGSLRLSCAASGFIIGKYTMGWYRQAPGKEREFVAAIRRSGASTYYADSVKGRFTISRDNAKNTVYLQMNSLKPEDTAVYYCSQAGYSPVYGYWGQGTQVTVSS” here?
Answer: high polyreactivity

Question: With “QVQIVESGGGLVQAGGSLRLSCAASGIIFDGYAMGWYRQAPGKERELVAGITIGDITYYADSVKGRFTISRDNAKITVYLQMNSLKPEDTAVYYCAADSYYYQTAYDYWGQGTQVTVSS” as the sequence, how does the “polyreactivity (PSR sort gate)” value read?
Answer: low polyreactivity

Question: For “QVQIVESGGGLVQAGGSLRLSCAASGLTFYQNAMGWYRQAPGKERELVAAITRSGGSTYYADSVKGRFTISRDNAKNTVYLQMNSLKPEDTAVYYCAARGGLSRRYEYWGQGTQVTVSS”, which “polyreactivity (PSR sort gate)” value is on record?
Answer: high polyreactivity

Question: Which “polyreactivity (PSR sort gate)” value does the source give for “QVQIVESGGGLVQAGGSLRLSCAASGRIFAGYAIGWYRQAPGKERELVAAISSGGSTYYADSVKGRFTISRDNAKNTVYLQMNSLKPEDTAVYYCSAVGRRVYGTKFYYWGQGTQVTFSS” here?
Answer: high polyreactivity

Question: With “QVQIVESGGGLVQAGGSLRLSCAASGRIFDYYTMGWYRQAPGKERELVASISDGGRTNYADSVKGRFTISRDNAKNTVYLQMNSLKPEDTAVYYCAADFAPVAFDYWGQGTQVTVSS” as the sequence, how does the “polyreactivity (PSR sort gate)” value read?
Answer: low polyreactivity

Question: Which “polyreactivity (PSR sort gate)” value does the source give for “QVQIVESGGGLVQAGGSLRLSCAASGRIFFVNTKGWYRQAPGKERELVATISWSGGSTYYADSVKGRFTISRDNAKNTVYLQMNSLKPEDTAVYYCNRSLTGYDELGYPVPYTYDYWGQGTQVTVSS” here?
Answer: low polyreactivity

Question: For “QVQIVESGGGLVQAGGSLRLSCAASGRIFLPYAMGWYRQAPGKERELVAAITQSGVITSYADSVKGRFTISRDNAKNTVYLQMNSLKPEDTAVYYCATVRTVIVFRFPYSYGYWGQGTQVTVSS”, which “polyreactivity (PSR sort gate)” value is on record?
Answer: high polyreactivity

Question: Which “polyreactivity (PSR sort gate)” value does the source give for “QVQIVESGGGLVQAGGSLRLSCAASGRIRSYAMGWYRQAPGKERELVAAISSRGGSTYYADSVKGRFTISRDNAKNTVYLLMNSLKPEDTAVYYCAKGGYCGQGTQVTVSS” here?
Answer: high polyreactivity

Question: With “QVQIVESGGGLVQAGGSLRLSCAASGRTFGVYAMGWYRQAPAKESTYYADSVKGRFTISRDNAKNTVYLQMNSLKPEDTAVYYCNARGGFGYITMDYWGQGTQVTVSS” as the sequence, how does the “polyreactivity (PSR sort gate)” value read?
Answer: low polyreactivity

Question: With “QVQIVESGGGLVQAGGSLRLSCAASGRTFWSYAMVWYRPAPGKEWELVATIKDSDGSTYADSVKGRFKISRDNAKNTVYLQMNSLKPEDTAVYYWIAKTRAGYYFGYGYWGQVTQVTVSS” as the sequence, how does the “polyreactivity (PSR sort gate)” value read?
Answer: low polyreactivity

Question: Which “polyreactivity (PSR sort gate)” value does the source give for “QVQIVESGGGLVQAGGSLRLSCAASGRTLDVYAMGWDRQAPGKERELVARITSGGSTNYADSVKGRFTISRDNAKNTVYLQMNSLKPEDTAVYYCNAVVYPRPYTRPRYRYDYWGQGTQVTVSS” here?
Answer: high polyreactivity

Question: With “QVQIVESGGGLVQAGGSLRLSCAASGRTVKFYAMGWYRQAPGKERELVARITSNSGSTYYADSVKGRFTISRDNAKNTVYLQMNSLKPEDTAVYYCAARGRYRQFNYWGQGTQVTVSS” as the sequence, how does the “polyreactivity (PSR sort gate)” value read?
Answer: high polyreactivity

Question: With “QVQIVESGGGLVQAGGSLRLSCAASGRTVVYNSMGWYRQAPGKERELVAAITRSGDSSYYADSVKGRFSISRDNAKNPVYLQMNSLKPEDTAVYYCNAVSKRYWLMDYWGQGTQVTVSS” as the sequence, how does the “polyreactivity (PSR sort gate)” value read?
Answer: high polyreactivity

Question: Which “polyreactivity (PSR sort gate)” value does the source give for “QVQIVESGGGLVQAGGSLRLSCAASGSIFFAYAMGSYRQAPGKERELVAAITGSGGSTYADSVKGRFTISRDNAKNTVYVQMNSLKPEDTAVYYCAKDHYYYPYKRLFVGHEYWGQGTQVTVSS” here?
Answer: low polyreactivity

Question: For “QVQIVESGGGLVQAGGSLRLSCAASGSIFPINAMGWYRQAPGKERELVAVITSGGGGTYYADCVKGRYTISRDNAKNTVYLQMNSLKPEDPAGYYCAKRLSRKWQKFGYWGQGTQVTVSS”, which “polyreactivity (PSR sort gate)” value is on record?
Answer: low polyreactivity

Reference: the nanobody polyreactivity screen of Harvey et al. (2022)
